This experiment has as its system CN3 yeast strain host cells. In words: Detection of glycosylated cannabinoids and cannabinoid precursors in yeast cells expressing UDP-glycosyl transferase (HPLC-MS). It is filed as cell-based. On the set-up: key to CBDA-glc / OLA-glc / CBGA-glc / CBGA-(glc)2 / CBD-glc / CBD-(glc)2 / OLA-(glc)2 / CBGA-glucuronic acid: (+) represents the lowest detected quantities; (++), (+++), and (++++) signify relative increasing intermediate detected levels; (++), (+++), and (++++) signify relative increasing intermediate detected levels; (++), (+++), and (++++) signify relative increasing intermediate detected levels; (+++++) represents the highest detected quantities; No detectable levels of a glycosylated cannabinoid compound or glycosylated cannabinoid precursor compound are indicated by “n.d.”. As to conditions: for production of glycosylated cannabinoids or cannabinoid precursor compounds: pellet or supernatant of recombinant yeast host cells transformed with the UGT; for CBD-glc: 0.5 g/L CBD. An excerpt: CN3 yeast strain host cells were transformed as described in Example 1 with one of the following heterologous UGT genes: (1) AtUGT73C6, (2) AtUGT73B4, (3) AtUGT71 D1, (4) AtUGT76E12, (5) AtUGT88A1, (6) HaUGT76G1-L, (7) At5g49690, (8) AtUGT76C4, (9) CsUGT73C6, (10) SrUGT76C1, (11) AtUGT85A3, (12) AtUGT73B1, (13) Atg65550, (14) AtUGT76B1, (15) ATUGT76B1, (16) CsUGT75B2, (17) CsUGT73B4, (18) CsUGT73B1, (19) CsUGT75D1-DN11028, and (20) CsUGT71D1-DN48028. The transformed host cells were pre-grown overnight in yeast extract peptone dextrose (YPD) growth medium and then back diluted into yeast extract peptone galactose (YPG) to OD600 = 0.2. […] Strains were incubated for 20 h at 28° C. rotating at 600 RPM in an EPOCH|2 microplate reader (BioTek). Subsequently, samples were treated with an extraction solvent (80 % Acetonitrile, 20 % Methanol) for 1 hour rotating at 100 RPM. After 20 minutes centrifugation at 12,000 RPM, the supernatant was filtered with a basix 13 mm syringe filter (0.22 µm pore size, Nylon membrane) and transferred to a new tube for further analysis.
Glycosylated cannabinoid compounds and glycosylated cannabinoid precursor compounds were assayed in the supernatant and the cellular pellet employing HPLC and HPLC-MS analysis. HPLC and HPLC-MS analysis was carried out as described below to detect the following glycosylated cannabinoid and cannabinoid precursor compounds: CBGA monoglucoside, CBGA diglucoside, CBDA monoglucoside, CBDA diglucoside, CBGA glucuronic acid, CBD monoglucoside, CBD diglucoside, olivetolic acid monoglucoside (“OliAcid monoglucoside”), olivetolic acid diglucoside (“OliAcid diglucoside”).
HPLC analysis was carried out on an Agilent Technologies 1290 Infinity system, consisting of a vacuum degasser, a binary pump, a thermostated autosampler, a thermostated column compartment and a diode array detector (DAD). A Zorbax Eclipse Plus EC-18 column (2.1 × 50 mm, 1.8 µm, Agilent, USA) was used with a mobile phase composed of 0.1% formic acid in both (A) water with 0.2 % Formic Acid and (B) Acetonitrile with 0.2 % Formic Acid. The chromatographic conditions were set as follows: 0.0-8.0 min linear gradient from 5 to 95% B; 8.1-9.09 min […], 9.10-11.0 min 5 to 95% A for equilibration of the column with the initial conditions. The flow rate was set at 0.4 ml/min. The column temperature was set at 40° C. The sample injection volume was 5 µL. The UV/DAD acquisitions were carried out in the range 190-400 nm and chromatograms were acquired at 265 and 350 nm.
HPLC-MS analysis was carried out to confirm the identity of the HPLC peaks using an Agilent Technologies 6530 Accurate-Mass quadrupole time of flight (QToF) mass spectrometer operating in negative ionization (ESI -) mode. The mass spectrometer experimental parameters were set as follows: the capillary voltage was 3.5 kV, the nebulizer (N2) pressure was 35 psi, the drying gas temperature was 350° C., the drying gas flow was 11 L/min and the skimmer voltage was 65 V. Data were acquired by Agilent Mass Hunter software. The mass spectrometer was operated in full-scan mode in the m/z range 50-1100. Extracted ion chromatograms (EICs) were obtained with an accuracy of 10 ppm m/z from total ion chromatogram (TIC) employing the m/z corresponding to the molecular ions [M-H]^- 385.1504 for Olivetolic Acid Mono-Glucoside, 547.2032 for Olivetolic Acid di-Glucoside, 521.2756 for CBGA Mono-Glucoside, 683.3284 for CBGA Di-Glucoside, 535.2549 for CBGA Glucuronic Acid, 519.2600 for CBDA Mono-Glucoside, 475.2701 for CBD Mono-Glucoside, 637.3302 for CBD Di-Glucoside.
The glycosylated cannabinoid compounds and glycosylated cannabinoid precursor compounds were detected in a relative and semi-quantitative fashion. […]

Where [1] appears, read: 20 h growth, detected in PELLET, 0.05 mM hexanoic acid.
Setting [2] is: 20 h growth, detected in SUPERNATANT, 0.2 mM hexanoic acid.

B1: AtUGT76C4: UDP-glycosyl transferase from Arabidopsis thaliana, amino acid sequence SEQ ID NO: 12 (protein, listed as Arabidopsis thaliana)
chain: MEKSNGLRVILFPLPLQGCINPMIQLAKILHSRGFSITVIHTCFNAPKASSHPLFTFIQIQDGLSETETRTRDVKLLITLLNQNCESPVRECLRKLLQSAKEEKQRISCLINDSGWIFTQHLAKSLNLMRLAFNTYKISFFRSHFVLPQLRREMFLPLQDSEQDDPVEKFPPLRKKDLLRILEADSVQGDSYSDMILEKTKASSGLIFMSCEELDQDSLSQSREDFKVPIFAIGPSHSHFPASSSSLFTPDETCIPWLDRQEDKSVIYVSIGSLVTINETELMEIAWGLSNSDQPFLWVVRVGSVNGTEWIEAIPEYFIKRLNEKGKIVKWAPQQEVLKHRAIGGFLTHNGWNSTVESVCEGVPMICLPFRWDQLLNARFVSDVWMVGIHLEGRIERDEIERAIRRLLLETEGEAIRERIQLLKEKVGRSVKQNGSAYQSLQNLINYISSF
For B1, the “production of glycosylated cannabinoids or cannabinoid precursor compounds” value (“production” below) is recorded as “detected”. Also, the OLA-glc entry under setting [1] is “++”.

B2: AtUGT76E12: UDP-glycosyl transferase from Arabidopsis thaliana, amino acid sequence SEQ ID NO: 14 (protein, listed as Arabidopsis thaliana)
chain: MQVLGMEEKPARRSVVLVPFPAQGHISPMMQLAKTLHLKGFSITVVQTKFNYFSPSDDFTHDFQFVTIPESLPESDFKNLGPIQFLFKLNKECKVSFKDCLGQLVLQQSNEISCVIYDEFMYFAEAAAKECKLPNIIFSTTSATAFACRSVFDKLYANNVQAPLKETKGQQEELVPEFYPLRYKDFPVSRFASLESIMEVYRNTVDKRTASSVIINTASCLESSSLSFLQQQQLQIPVYPIGPLHMVASAPTSLLEENKSCIEWLNKQKVNSVIYISMGSIALMEINEIMEVASGLAASNQHFLWVIRPGSIPGSEWIESMPEEFSKMVLDRGYIVKWAPQKEVLSHPAVGGFWSHCGWNSTLESIGQGVPMICRPFSGDQKVNARYLECVWKIGIQVEGELDRGVVERAVKRLMVDEEGEEMRKRAFSLKEQLRASVKSGGSSHNSLEEFVHFIRTL
Take B2: the “production” value is “detected”. Under setting [1], the CBGA-glc result is given as “+++” and the OLA-glc result is given as “+++”. Further, under setting [2], the CBGA-glc entry is recorded as “+” and the OLA-glc entry was “+++”.

B3: HaUGT76G1L: UDP-glycosyl transferase from Helianthus annuus, amino acid sequence SEQ ID NO: 2 (protein, listed as Helianthus annuus)
chain: METQTETTNTVRRNRRIIFFPLPYQGHINPMLQLANLLYSKGFSITILHTNFNKPKTSNYPHFTFKFILDNDPHDGRYSNLPLHGMGAFNRVFVFNEDGADELRHELELLMLASKEDDEHVSCLITDALWHFTQSVADSLSLPRLVLRTSSLFSFLIYASIPLLDDRGYLSLSDNTMALILDGLGYHDLSDNKRLEEQVEEFPMLKVKDIVKMGFKREKDGAGGMIDNMVKQTKTSSGIIWNSFKELEESELETIRRDIPAPSFPIPFAKHFTASSSSLLEHDRSFFPWLDQQPPKSVVYVSFGSVAQVEEKHFMEMVHGLVDSKQLFLWVVRPGFVSGSTWLEPLPDGFPGERGRIVKWAPQQEVLGHEAIGAFWTHGGWNSTLESVCEGVPMICSPFWGDQPLDARYVSDVWKVGVYLENGWKREEITGAIRRVMTDEEMRERARVLKQKLDVSLMKGGSSYESVESLVAYVSSF
B3: the “production” value is listed as “detected”. Also, under setting [1], the CBDA-glc entry is given as “++” and the OLA-glc result is on record as “++”.

B4: AtUGT73B4: UDP-glycosyl transferase from Arabidopsis thaliana, amino acid sequence SEQ ID NO: 10 (protein, listed as Arabidopsis thaliana)
chain: MNREQIHILFFPFMAHGHMIPLLDMAKLFARRGAKSTLLTTPINAKILEKPIEAFKVQNPDLEIGIKILNFPCVELGLPEGCENRDFINSYQKSDSFDLFLKFLFSTKYMKQQLESFIETTKPSALVADMFFPWATESAEKIGVPRLVFHGTSSFALCCSYNMRIHKPHKKVASSSTPFVIPGLPGDIVITEDQANVTNEETPFGKFWKEVRESETSSFGVLVNSFYELESSYADFYRSFVAKKAWHIGPLSLSNRGIAEKAGRGKKANIDEQECLKWLDSKTPGSVVYLSFGSGTGLPNEQLLEIAFGLEGSGQNFIWVVSKNENQVGTGENEDWLPKGFEERNKGKGLIIRGWAPQVLILDHKAIGGFVTHCGWNSTLEGIAAGLPMVTWPMGAEQFYNEKLLTKVLRIGVNVGATELVKKGKLISRAQVEKAVREVIGGEKAEERRLRAKELGEMAKAAVEEGGSSYNDVNKFMEELNGRK
In the case of B4, the “production” value is listed as “detected”. Besides, under setting [1], the “CBGA-(glc)2” value is “++”, the CBGA-glc result is recorded as “++++”, the CBGA-glucuronic acid entry was “++” and the “OLA-(glc)2” value is on record as “++”. Besides, the OLA-glc entry under setting [1] was “++++”. Further, the CBD-glc result (20 h growth, detected in PELLET) is “++”. Further, under setting [2], the CBGA-glc result is on record as “++”, the “OLA-(glc)2” value is listed as “++” and the OLA-glc entry is on record as “+++++”. Further, the CBD-glc result (20 h growth, detected in SUPERNATANT) was “++”.

B5: AtUGT88A1: UDP-glycosyl transferase from Arabidopsis thaliana, amino acid sequence SEQ ID NO: 6 (protein, listed as Arabidopsis thaliana)
chain: MGEEAIVLYPAPPIGHLVSMVELGKTILSKNPSLSIHIILVPPPYQPESTATYISSVSSSFPSITFHHLPAVTPYSSSSTSRHHHESLLLEILCFSNPSVHRTLFSLSRNFNVRAMIIDFFCTAVLDITADFTFPVYFFYTSGAACLAFSFYLPTIDETTPGKNLKDIPTVHIPGVPPMKGSDMPKAVLERDDEVYDVFIMFGKQLSKSSGIIINTFDALENRAIKAITEELCFRNIYPIGPLIVNGRIEDRNDNKAVSCLNWLDSQPEKSVVFLCFGSLGLFSKEQVIEIAVGLEKSGQRFLWVVRNPPELEKTELDLKSLLPEGFLSRTEDKGMVVKSWAPQVPVLNHKAVGGFVTHCGWNSILEAVCAGVPMVAWPLYAEQRFNRVMIVDEIKIAISMNESETGFVSSTEVEKRVQEIIGECPVRERTMAMKNAAELALTETGSSHTALTTLLQSWSPK
Regarding B5, the “production” value is listed as “detected”. Under setting [1], the CBGA-glc entry was “++” and the OLA-glc result is on record as “+”.
